# Measurements taken from patent US20030044400A1, “Composition and method for treating cells” (priority 2001, published 2003).
# Experiments:
# normal cell lines = assay: Apoptosis in normal cell lines; assay type: cell-based; details: in 2-3 days
# [1] = Determination of LD50 of Fetuin in Rats; assay type: in vivo, Sprague-Dawley albino rats
# Procedure: The Sprague-Dawley albino rats weighed 170-210 g and were divided into 4 groups, each group including 5 males and 5 females. The control group received 1 ml of saline intraperitoneally for 5 days. The other three groups were given 8.35 mg, 25 mg and 250 mg per kg body wt. of Fetuin 0.1 g/ml. All volumes were made up to 1 ml with sterile pyrogene free saline. The observation period was a least 14 days. If a visible toxic reaction occurs the observation period may be increased until visible signs of toxicity disappear. If any deaths occur during this period, the animal will be immediately autopsied to determine cause of death. During the observation period a careful clinical examination is made each day. These observations include skin and fur, eyes and mucous membranes, respiratory system, circulatory system, autonomic and central nervous system, somatomator activity and behavior patterns. Particular attention will be directed to observation of tremors, convulsions, salivation, diarrhea, lethargy, sleep or coma. Individual weights of the animals are determined shortly before the test substance is administered, and weekly thereafter. Any weight changes are recorded. At the end of the test, the surviving animals are weighed and sacrificed. Prior to sacrifice, blood is drawn from each animal to determine the serum levels of fetuin. After sacrifice, a gross necropsy is done on all animals. Any gross pathological changes are recorded and pertinent tissues preserved in 10% formalin for subsequent histopathology. The observations recorded are tabulated to see if there is any correlation between mortality and/or symptoms and the dose. The LD50 for each sex is determined at 14 days, using the method of Litchfield and Wilcoxon. A dose mortality curve and slope is determined if data justify it. A table of body weight gains or loses is constructed. Necropsy finding is reported.
# [2] = system: WI 38 (normal lung fibroblast); assay: Fetuin-induced apoptosis, Hoechst staining confirmed by MTS assay; assay type: cell-based, Human
# Procedure: (§1) The purified fetuin was tested on various cancer cell lines. […] The DNA condensation and breakage of nuclei which are the characteristics for apoptosis were observed by staining the cell with Hoechst dye at 0.1 ug/ml.
# (§2) Various concentrations of Zn-charged fetuin prepared as described were incubated with cell lines for 6 hr. Percent of cell under apoptosis was determined by Hoechst staining and confirmed by MTS assay. The concentration of Zn-charged fetuin for the induction of 50% of cells under apoptosis (LD50) was determined. Each data represents the average of three assays.
# [3] = system: CCD 39 Lu (normal lung fibroblast); assay: as above; assay type: cell-based, Human
# Procedure: as §1, §2
# HL-60 cells = assay: as above; assay type: cell-based, Human
# Procedure: as §1, §2
# Colo 205 cells = assay: as above; assay type: cell-based, Human
# Procedure: as §1, §2
# MCF-7 cells = assay: as above; assay type: cell-based, Human
# Procedure: as §1, §2
# [4] = system: CCD 18 Co (normal colon fibroblast); assay: as above; assay type: cell-based, Human
# Procedure: as §1, §2
# Calu-1 cells = assay: as above; assay type: cell-based, Human
# Procedure: as §1, §2
# PC-3 cells = assay: as above; assay type: cell-based, Human
# Procedure: as §1, §2
# LNCaP cells = assay: as above; assay type: cell-based, Human
# Procedure: as §1
# Fetuin purified by modified Spiro method was further incubated with Zinc Acetate or Barium Acetate (0.25M) at room temperature for 1 hr. Free ions were removed by repetitive concentration against 20 volumes of PBS three times. Fetuin, Zn-charged fetuin and Ba-charged fetuin (5 uM) and PBS were then separately incubated with LNCaP cells for 4 hr. Percent of cells under apoptosis was determined by Hoechst staining and confirmed by MTS assay. Each data represents the average of two assays. Zn-charged or Ba-charged fetuin may contain free Zn or Ba (about 30 uM). However, all the cell lines are not affected by Zn or Ba alone at all concentrations tested (up to 66 uM).
# as §2
# [5] = rats, 5 female, 8.35 mg/kg Fetuin
# [6] = rats, 5 female, 8.35 mg/kg Fetuin ip
# [7] = rats, 5 female, 25 mg/kg Fetuin
# [8] = rats, 5 female, 25 mg/kg Fetuin ip
# [9] = rats, 5 female, 250 mg/kg Fetuin
# [10] = rats, 5 female, 250 mg/kg Fetuin ip
# [11] = rats, 5 male, 8.35 mg/kg Fetuin
# [12] = rats, 5 male, 8.35 mg/kg Fetuin ip
# [13] = rats, 5 male, 25 mg/kg Fetuin ip
# [14] = rats, 5 male, 250 mg/kg Fetuin ip
# [15] = Zn-charged fetuin, 6 hr, average of three assays
# [16] = purified fetuin, Hoechst dye 0.1 ug/ml
substance,measurement,setting,value
"Fetuin: Fetal bovine fetuin purified from fetal bovine serum by modified Spiro method; 60 Kd glycoprotein, homologue of alpha 2-HS glycoprotein",apoptosis in normal cell lines,normal cell lines,not the normal cell lines
same,necropsy,"[1]; all of the rats, 8.35, 25 and 250 mg per kg",appeared to be normal
same,Spleen Wt. (gm),[1]; [5],0.513 gm
same,Thymus Wt. (gm),[1]; [5],0.481 gm
same,Final Wt. (gm),[1]; [6],203.5 gm
same,Initial Wt. (gm),[1]; [6],170.2 gm
same,Wt. Gain Total (gm),[1]; [6],33.3 gm
same,Spleen Wt. (gm),[1]; [7],0.714 gm
same,Thymus Wt. (gm),[1]; [7],0.485 gm
same,Final Wt. (gm),[1]; [8],218.3 gm
same,Initial Wt. (gm),[1]; [8],190.3 gm
same,Wt. Gain Total (gm),[1]; [8],28.0 gm
same,Spleen Wt. (gm),[1]; [9],0.578 gm
same,Thymus Wt. (gm),[1]; [9],0.619 gm
same,Final Wt. (gm),[1]; [10],201.7 gm
same,Initial Wt. (gm),[1]; [10],164.2 gm
same,Wt. Gain Total (gm),[1]; [10],37.5 gm
same,Spleen Wt. (gm),[1]; [11],0.745 gm
same,Thymus Wt. (gm),[1]; [11],0.599 gm
same,Final Wt. (gm),[1]; [12],283.7 gm
same,Initial Wt. (gm),[1]; [12],233.5 gm
same,Wt. Gain Total (gm),[1]; [12],50.2 gm
same,Spleen Wt. (gm),"[1]; rats, 5 male, 25 mg/kg Fetuin",0.796 gm
same,Thymus Wt. (gm),"[1]; rats, 5 male, 25 mg/kg Fetuin",0.525 gm
same,Final Wt. (gm),[1]; [13],227.5 gm
same,Initial Wt. (gm),[1]; [13],174.5 gm
same,Wt. Gain Total (gm),[1]; [13],53.0 gm
same,Spleen Wt. (gm),"[1]; rats, 5 male, 250 mg/kg Fetuin",0.777 gm
same,Thymus Wt. (gm),"[1]; rats, 5 male, 250 mg/kg Fetuin",0.595 gm
same,Final Wt. (gm),[1]; [14],253.3 gm
same,Initial Wt. (gm),[1]; [14],186.5 gm
same,Wt. Gain Total (gm),[1]; [14],66.8 gm
same,mortality,"[1]; rats, 8.35, 25 and 250 mg per kg ip, observation at least 14 days",no mortality
same,LD50 of Fetuin-induced Apoptosis,"[2]; WI 38, Zn-charged fetuin, 6 hr, average of three assays",>100 µM
same,induction of apoptosis,"[2]; WI-38, purified fetuin, Hoechst dye 0.1 ug/ml",did not induce apoptosis
same,LD50 of Fetuin-induced Apoptosis,"[3]; CCD 39 Lu, Zn-charged fetuin, 6 hr, average of three assays",>100 µM
same,induction of apoptosis,"[3]; CCD39Lu, purified fetuin, Hoechst dye 0.1 ug/ml",did not induce apoptosis
same,LD50 of Fetuin-induced Apoptosis,"HL-60 cells; HL-60, Zn-charged fetuin, 6 hr, average of three assays",5 µM
same,induction of apoptosis,"HL-60 cells; HL-60, purified fetuin, Hoechst dye 0.1 ug/ml",strongly induced apoptosis
same,apoptosis of HL-60 cells,HL-60 cells; at 1 uM,induce apoptosis
same,LD50 of Fetuin-induced Apoptosis,Colo 205 cells; [15],5 µM
same,induction of apoptosis,Colo 205 cells; [16],strongly induced apoptosis
same,LD50 of Fetuin-induced Apoptosis,MCF-7 cells; [15],8 µM
same,induction of apoptosis,MCF-7 cells; [16],strongly induced apoptosis
same,LD50 of Fetuin-induced Apoptosis,"[4]; CCD 18 Co, Zn-charged fetuin, 6 hr, average of three assays",>100 µM
same,induction of apoptosis,"[4]; CCD18Co, purified fetuin, Hoechst dye 0.1 ug/ml",did not induce apoptosis
same,LD50 of Fetuin-induced Apoptosis,Calu-1 cells; [15],4 µM
same,induction of apoptosis,Calu-1 cells; [16],strongly induced apoptosis
same,LD50 of Fetuin-induced Apoptosis,PC-3 cells; [15],1 µM
same,induction of apoptosis,PC-3 cells; [16],strongly induced apoptosis
same,LD50 of Fetuin-induced Apoptosis,"LNCaP cells; LNCaP, Zn-charged fetuin, 6 hr, concentration for 50% of cells under apoptosis, average of three assays",1 µM
same,induction of apoptosis,"LNCaP cells; LNCaP, purified fetuin, Hoechst dye 0.1 ug/ml",strongly induced apoptosis
same,apoptotic activity by method of preparation,LNCaP cells; Pederson Method (Sigma) vs modified Spiro method,induced apoptosis
same,apoptosis-inducing activity,LNCaP cells; Substitution of Zinc by Barium,completely abolished
same,apoptosis-inducing activity in LNCaP cells,LNCaP cells; fetal vs mature fetuins at the same concentration,strongly induced apoptosis
